# From paper PMC6220982
# “And” between values parts separate entries of the source, which are not always exact repeats. Identical values can stand only once.
# Tests used:
# [1] = target: Asn3-ISP (intracellular subtilisin protease from Planococcus sp. AW02J18, starting at Asn3) (Planococcus sp. AW02J18); assay: SEC; pre-calibrated Superdex 200 10/300 GL; 500 µl Asn3-ISP at 0.8 mg/mL; 50 mM Tris-HCl pH 7.5, 150 mM NaCl; without calcium or with 1 mM EDTA (overnight)
# [2] = target: Asn3-ISP (intracellular subtilisin protease from Planococcus sp. AW02J18, starting at Asn3) (Planococcus sp. AW02J18); assay: SEC; pre-calibrated Superdex 200 10/300 GL; 500 µl Asn3-ISP at 0.8 mg/mL; 50 mM Tris-HCl pH 7.5, 150 mM NaCl; with 2 mM CaCl2 added immediately before the run
substance,measurement,setting,value
"Asn3-ISP (intracellular subtilisin protease from Planococcus sp. AW02J18, starting at Asn3) (enzyme)",stoichiometry N (monomers per oligomer),[1],3.3
same,stoichiometry N (monomers per oligomer),[2],3.7 and 2.5
